B1: Bcl-2 P2 promoter probe 3 (site 3) (dsDNA)
DNA 1: GGCAGCTTAATACATTCTTTTTAGCCG
DNA 2: CGGCTAAAAAGAATGTATTAAGCTGCC
B2: Bcl-2 P2 promoter probe 1 (site 1) (dsDNA)
DNA 1: TGCGGATTGACATTTCTGTGAA
DNA 2: TTCACAGAAATGTCAATCCGCA
B3: Bcl-2 P2 promoter probe 2 (site 2) (dsDNA)
DNA 1: GGTTTAATGTAACTTTCAATGG
DNA 2: CCATTGAAAGTTACATTAAACC

Each binder was assayed against recombinant MATα2 (UniProt P31153 1-395) (assay: EMSA; 200 ng protein; LightShift Chemiluminescent EMSA Kit protocol (Thermo); buffer, salt, pH and binding temperature not stated). Conditions: label: biotin (extract EMSA), SYBR Green gel stain with recombinant protein, blunt.
Sequence of recombinant MATα2 (P31153 whole entry): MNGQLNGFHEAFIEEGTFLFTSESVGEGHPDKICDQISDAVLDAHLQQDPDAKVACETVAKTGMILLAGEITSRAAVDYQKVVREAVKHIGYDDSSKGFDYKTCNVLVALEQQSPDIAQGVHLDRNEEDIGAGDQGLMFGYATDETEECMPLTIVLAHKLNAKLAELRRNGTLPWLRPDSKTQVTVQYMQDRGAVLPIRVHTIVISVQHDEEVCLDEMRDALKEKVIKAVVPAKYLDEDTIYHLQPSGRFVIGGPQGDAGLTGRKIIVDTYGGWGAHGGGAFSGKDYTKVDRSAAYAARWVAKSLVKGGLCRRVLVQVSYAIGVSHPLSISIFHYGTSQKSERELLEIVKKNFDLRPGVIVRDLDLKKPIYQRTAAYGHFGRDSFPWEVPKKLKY

Binding result, binds:
B1, B2, B3

Source: article PMC4741959, “Methionine adenosyltransferase α2 sumoylation positively regulate Bcl-2 expression in human colon and liver cancer cells”
